Values of other authors, collected in PMC6963985.

Molecular target: CTLA-4 (Homo sapiens) (UniProt P16410)
Sequence of UniProt P16410 (P16410 36-161): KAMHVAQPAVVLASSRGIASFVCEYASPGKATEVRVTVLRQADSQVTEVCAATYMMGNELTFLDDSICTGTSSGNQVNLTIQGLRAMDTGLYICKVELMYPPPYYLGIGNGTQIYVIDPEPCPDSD

In the case of Tremelimumab, the Kd is given as 5.9 nM.
